Assay: soluble on expression in E. coli; label from the status in PepcDB or PDB records

Row | Sequence | soluble on expression in E. coli
1 | MGSDKIHHHHHHMKVSSKPSLTWEILTSRADRPRQEVFPFNTGRCEYFYSARYALAAALDALKLSPQQSILMPSYNCWVEVEPAVRSGAKIDWYRVKTDFSIDEDDLLARIRPETAAIFVIHYLGFPQRLENIHRICTERGIVLIEDCAHALLSNDGDVPLGLTGDMAIFSIRKTVPIPDGGCLLINNPAFSVNRPRRVRPNLFATYFVVSEMLARGSTTEPKRVNQMAYSCNFAFARLARMGLRGIHKIFQDHGDYLVYPSGNHFNEQVKHWMMSDVSSAILRGTEFQRIKERRRANFLHLLDKLIMNDRITLPILSLPEGVSPLFFPVIVQDRDRVYRQLKDQGLSGHDWWGDFHPAVPWDKYPDAVYLKTNVFGFPVHQDLSRESLGIMLAEFSQCL | not soluble
2 | MGSDKIHHHHHHMKYIINHSNDTAFNIALEEYAFKHLLDEDQIFLLWINKPSIIVGRHQNTIEEINRDYVRENGIEVVRRISGGGAVYHDLNNLNYTIISKEDENKAFDFKSFSTPVINTLAQLGVKAEFTGRNDLEIDGKKFCGNAQAYINGRIMHHGCLLFDVDLSVLANALKVSKDKFESKGVKSVRARVTNIINELPKKITVEKFRDLLLEYMKKEYPEMTEYVFSEEELAEINRIKDTKFGTWDWNYGKSPEFNVRRGIKFTSGKVEVFANVTESKIQDIKIYGDFFGIEDVAAVEDVLRGVKYEREDVLKALKTIDITRYFAGISREEIAEAVVG | soluble
3 | MGSDKIHHHHHHMKYLPLYPILARYPFLRIASRVFSFNIEDELRKFLDTVEAAKRIVDKAIDGRVEYDRFTDESEFFCLGCEENCYDCQKRGTLEGCDLCMGCFENCSLYYPREAVERFYTNAKLSLLTYIASRMIVSAMEDWVRMRYAVNEASYYSRLLREDVEESGKEPIVRLVAIDLGAKLKGWKMHVSTFVRVSARIKDDKWRLVNRKLRNGWVETTKAEVLRGLEELLRMKLFEKVPVSEAVSEAVRELSRKAKRESEKFAMDLGEVDLNCLPPCMREILSELQRGMNIPHTARFAITSFLLNIGMTVDEIIALFKSAPDFDDEKTRYQVEHIAGERGKGAEYTSPSCDTMRTYSNCVADCRVSHPLIYYKKCKSKS | not soluble
4 | MGSDKIHHHHHHMKYPNETSGTADYTVIKGLVTSNGDTGHDSIALDTATQLTAEDVKHFRDYGFSIVGRYLTGTVGTDYKPKNLTSTEIKTILDGGMKFFPIYEDGGYVESYFTASQGQKDAQTAIKTALDLELPAGTVIYFAVDVDFQDGDIDGTVIPYIKAIQNILSQSIYKTGIYGTRNVCLHAERVGIGFSFVANMSYGWSGNLGFKMPDNWAFDQFVEYPIYGIDIDQTASSGLDKGISGVAQTTPEVQTGYLANQLLSVFPDYHNLFGTINWTVSAPEQHLSTPIADYYITLEDKWIATVVDDKTGTLTIQDAKMLNQTADVMKQFESAMSSYDIGDLSGAFNKLAPMIGNGAIKAGLAIRDGMVGFKIAIEGSFESSTSSSSVEGKYTLTLETYIHRDQVPKNAYDPVYQPVTEPNPVFAVDLGKVATTVVIGLLVSSMLPEVGGGAALVELFNVVKTIFAVA | not soluble
5 | MGSDKIHHHHHHMKYTVIICDDNLNHASNLALKIGIAAMVDSGDNPDTEIDLEIGKIAQNALDVIEYLKENPISGGIYFLDIELSQEKNAMNGIDLAEQVKQLDPRAQIIFVTAYNEYMEMTFERRIGAVDYINKSNPNLQNRLNETLQDTVRRISKENYSKKMTFSYRLGRIIKNINIDDIYYISTTKAPHKLKLVKNDGTAEFAGDIKSVDKQNEFLTKVSQSYLVNPKNIVQINLKKKEITLSNGDAIKFSRRFTHVMKDMINTYNLKQNNYQI | not soluble
6 | MGSDKIHHHHHHMLAERLVSDYDVEVLTTCVRDVATGENIYPEGEEEWNGVVIRRFRTNPVQREKERYFAKKAKPARKLRQFLFKLGILKYLSYLIPVWSYKHDDEVQAMKSDKFYSSALNDYIRDHIDEYKAFIAMSSDYVTFYYTALYAGRKTIAIPTMHNMGISFRSVLTSAFSKIAYVGFNTGEEQRLAENILGKALGAHGILSVGIEESLSADWAMTKEKFQLPEKYLLYIGRITPKKIHRLLTYFVNYKKKYSDSTLRLVLVGGLAMERFEHPDVIYTGFVSDEEKMSILQHADIVVNPSRYESLSLILLEAMSQKRPMLVNGHCKVLKEHCLKSDFASFYYMNNRGFNQALRRIEQSEDLREEMGEKGVFYVKSNYNWTLIMGRLKQAIKSI | not soluble
7 | MGSDKIHHHHHHMLCSRYFTSSLFLWGEALPTLLEEFLNEVEKMLKNQVNTRRIHQLLKELDDPLLENKDLEEKLQAFLDYVKEIPNLPEARKRYRIQKSLEMIEKLRSWFLIDYLECSGEEVDLSTDIQYAKGVGPNRKKKLKKLGIETLRDLLEFFPRDYEDRRKIFKLNDLLPGEKVTTQGKIVSVETKKFQNMNILTAVLSDGLVHVPLKWFNQDYLQTYLKQLTGKEVFVTGTVKSNAYTGQYEIHNAEVTPKEGEYVRRILPIYRLTSGISQKQMRKIFEENIPSLCCSLKETLPERILEKRKLLGVKDAYYGMHFPKTFYHLEKARERLAYEELFVLQLAFQKIRKEREKHGGIPKKIEGKLAEEFIKSLPFKLTNAQKRAHQEIRNDMISEKPMNRLLQGDVGSGKTVVAQLAILDNYEAGFQTAFMVPTSILAIQHYRRTVESFSKFNIHVALLIGATTPSEKEKIKSGLRNGQIDVVIGTHALIQEDVHFKNLGLVIIDEQHRFGVKQREALMNKGKMVDTLVMSATPIPRSMALAFYGDLDVTVIDEMPPGRKEVQTMLVPMDRVNEVYEFVRQEVMRGGQAFIVYPLIEESDKLNVKSAVEMYEYLSKEVFPEFKLGLMHGRLSQEEKDRVMLEFAEGRYDILVSTTVIEVGIDVPRANVMVIENPERFGLAQLHQLRGRVGRGGQEAYCFLVVGDVGEEAMERLRFFTLNTDGFKIAEYDLKTRGPGEFFGVKQHGLSGFKVADLYRDLKLLEWAREDVQEIDVEGIELPEEIKLIEVG | not soluble
8 | MGSDKIHHHHHHMLDLKSYREKELASYDLDVELFNEFNFSVYNVMPLRKAFLISTDKGEKILKKIDYTIEEFKFVLAAVNYIKNENEFNRIIDFNKTQSGEYYCIKNGDLYCVMDMIEGKECEFSNPVDLSISSFGLGQLHSASEGFRYSKIASKNICGKMIKGFKRKKEEVNFLKKMVNLYESLNEFDEIFIKNVDYYLEQIDKSIDIMNKSQYYKLCSEEDKIVLCHHDLAHHNIIIKDEEAYFIDFDYAIIDLKVHDLSNIISKAAKVFNYSIDNSKIIISNYCKSNTLSKNEMEVLFGMLSFPEDFYEIVKSYYTKRKDWSNEEFINKMKRKMANEENRVEFLKNFKEDLKI | not soluble
9 | MGSDKIHHHHHHMLDSSSGNAPDTHAAVDSAVLVSLDLNDSDSAENLEELRQLAASDRLAISAVVLGKRLRPDPATFAGSGKVDEIMGAVEQTGASLVIFNHDLSPAQQRNLEQRLRRRVIDRTSLILDIFAQRAKSHEGKLQVELAQLEHLATRLVRGWTHLERQKGGIGLRGPGETQLETDRRLLGKRVKVLKEKLAKFERQRALQRRARRRAQVMSVSLVGYTNAGKSTLFNRLTRGHTYVADQLFATLDATTRKLFIADRGPLVLSDTVGFIRDLPHTLVAAFRATLEETVQADLLLHVVDTSSSNRSEQIDEVNKVLKEIGADRIPQILVLNKTDLVDLPASSPGYQRDEYGRIVQVRLSAKTGEGLEFINLALSEALGERAALREPDNQSEAQDITSGYH | not soluble
10 | MGSDKIHHHHHHMLEGIFDINHVFDEEGIKTLKRFGWDGSVAVQNHNEYSEEKINTAVEYGENCEFKVYSGVKISTKNQNEMEKAVKKYRNKVDILLVEGGDVKINRRVLEMNDVDILSTPELNRMDNGLDHILARLGSTNRVAVELNFGNLLKSKNYDRSKILWAFQRNLKLSKKYDTPVVISSGANDIYGIKAPGDLRGFLNTVADPLYSKKIIETTSKIIDYRLYLKNKNVLMPGLEIVEE | not soluble
11 | MGSDKIHHHHHHMLEIIMSSIKSRQLTHSALASNIDIHDVTHFLLELDALKRVNRRSYVTGANRLENSAEHSWHLAMACWSIAELFELDVNQEKLLKMALVHDLGEIDAGDTFLYADTRGDAHLEERAGIARLQGERGNGISNLNEIWEEQETGSSTETQLLKVVDRLLPFLLNLNTNGKTWIELSVTRSQVSEAHAFIKDSFPSIHDWLAAQIEFATQQGWLIDT | not soluble
